One assay deals with T1, ATG14L (UniProt Q6ZNE5 1-492).
T1 construct: also called endogenous ATG14
The assay is described as follows: co-IP of Flag-IRGM and endogenous ATG14.

A further assay addresses T2, Beclin 1 (UniProt Q14457 1-450).
T2 construct: Flag-tagged overexpressed or endogenous, depending on the experiment; also called Flag-Beclin 1; Flag-Beclin-1
The assay is described as follows: co-immunoprecipitation, HEK293T lysates.

The next assay has as its target T3, NOD2 (full length) (UniProt Q9HC29 1-1040).
T3 construct: also called Flag-NOD2; endogenous NOD2
The assay is described as follows: co-IP, starved HT29 cells and HEK293T cells.

For the next assay, the target named is T4, TLR3 (UniProt O15455 24-904, limits assumed).
T4 construct: also called Flag-TLR3 (Addgene Plasmid 13084)
T4 sequence (looked up): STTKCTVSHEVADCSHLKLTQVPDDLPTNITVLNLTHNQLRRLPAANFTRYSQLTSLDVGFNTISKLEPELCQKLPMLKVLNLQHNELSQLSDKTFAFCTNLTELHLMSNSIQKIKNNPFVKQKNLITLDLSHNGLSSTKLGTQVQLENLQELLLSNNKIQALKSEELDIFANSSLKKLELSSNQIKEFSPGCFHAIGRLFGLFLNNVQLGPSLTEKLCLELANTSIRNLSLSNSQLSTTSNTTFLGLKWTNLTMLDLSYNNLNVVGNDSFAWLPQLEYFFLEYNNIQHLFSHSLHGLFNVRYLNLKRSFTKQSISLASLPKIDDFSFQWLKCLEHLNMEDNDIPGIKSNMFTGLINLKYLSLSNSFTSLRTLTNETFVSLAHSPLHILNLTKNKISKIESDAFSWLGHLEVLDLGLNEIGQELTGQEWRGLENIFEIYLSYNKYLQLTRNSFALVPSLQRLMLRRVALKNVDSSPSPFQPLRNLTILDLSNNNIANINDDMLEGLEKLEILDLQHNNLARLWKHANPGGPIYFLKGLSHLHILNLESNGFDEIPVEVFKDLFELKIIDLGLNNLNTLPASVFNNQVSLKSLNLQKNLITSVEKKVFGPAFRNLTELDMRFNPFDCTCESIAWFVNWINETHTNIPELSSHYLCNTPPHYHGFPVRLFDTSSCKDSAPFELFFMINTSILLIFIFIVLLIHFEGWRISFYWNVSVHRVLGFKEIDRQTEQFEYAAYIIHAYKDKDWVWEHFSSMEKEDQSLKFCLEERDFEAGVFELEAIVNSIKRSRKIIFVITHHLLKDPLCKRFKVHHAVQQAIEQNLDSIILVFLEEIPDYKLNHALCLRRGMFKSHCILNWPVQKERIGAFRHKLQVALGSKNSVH
The assay can be described thus: co-IP with anti-Flag, GFP-IRGM and Flag-TLR3.

The next assay addresses T5, RIG-I (UniProt O95786 1-925).
T5 construct: also called Flag-Rig-I
T5 sequence (looked up): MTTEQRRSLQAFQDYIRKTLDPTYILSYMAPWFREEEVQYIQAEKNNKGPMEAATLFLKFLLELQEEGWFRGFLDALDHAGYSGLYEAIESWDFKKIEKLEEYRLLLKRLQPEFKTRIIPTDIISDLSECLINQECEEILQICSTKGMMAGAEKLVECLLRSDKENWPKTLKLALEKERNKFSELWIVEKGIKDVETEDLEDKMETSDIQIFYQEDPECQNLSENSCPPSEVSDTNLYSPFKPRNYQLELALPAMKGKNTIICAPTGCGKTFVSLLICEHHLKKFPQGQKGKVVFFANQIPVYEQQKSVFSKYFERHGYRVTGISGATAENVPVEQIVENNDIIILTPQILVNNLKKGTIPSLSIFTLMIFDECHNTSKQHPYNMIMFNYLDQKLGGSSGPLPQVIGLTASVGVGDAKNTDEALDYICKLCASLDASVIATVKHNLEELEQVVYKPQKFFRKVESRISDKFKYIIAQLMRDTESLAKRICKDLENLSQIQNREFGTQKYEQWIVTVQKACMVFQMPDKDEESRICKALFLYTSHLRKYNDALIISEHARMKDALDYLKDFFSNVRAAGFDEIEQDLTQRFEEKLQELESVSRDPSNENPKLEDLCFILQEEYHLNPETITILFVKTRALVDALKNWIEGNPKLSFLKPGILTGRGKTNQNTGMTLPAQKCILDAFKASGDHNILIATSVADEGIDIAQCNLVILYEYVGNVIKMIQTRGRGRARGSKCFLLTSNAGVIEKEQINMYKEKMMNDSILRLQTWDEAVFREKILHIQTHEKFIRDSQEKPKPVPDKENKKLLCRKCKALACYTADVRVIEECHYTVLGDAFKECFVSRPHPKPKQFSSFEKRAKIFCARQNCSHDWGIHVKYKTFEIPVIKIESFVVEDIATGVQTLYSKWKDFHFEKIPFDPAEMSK
The assay is described as follows: co-IP with anti-GFP, GFP-IRGM and Flag-Rig-I.

For a further assay, the target named is T6, TLR4 (UniProt O00206 24-839, limits assumed).
T6 construct: also called GFP-TLR4; YFP-TLR4 (Addgene Plasmid 13018)
T6 sequence (O00206 24-839 limits assumed): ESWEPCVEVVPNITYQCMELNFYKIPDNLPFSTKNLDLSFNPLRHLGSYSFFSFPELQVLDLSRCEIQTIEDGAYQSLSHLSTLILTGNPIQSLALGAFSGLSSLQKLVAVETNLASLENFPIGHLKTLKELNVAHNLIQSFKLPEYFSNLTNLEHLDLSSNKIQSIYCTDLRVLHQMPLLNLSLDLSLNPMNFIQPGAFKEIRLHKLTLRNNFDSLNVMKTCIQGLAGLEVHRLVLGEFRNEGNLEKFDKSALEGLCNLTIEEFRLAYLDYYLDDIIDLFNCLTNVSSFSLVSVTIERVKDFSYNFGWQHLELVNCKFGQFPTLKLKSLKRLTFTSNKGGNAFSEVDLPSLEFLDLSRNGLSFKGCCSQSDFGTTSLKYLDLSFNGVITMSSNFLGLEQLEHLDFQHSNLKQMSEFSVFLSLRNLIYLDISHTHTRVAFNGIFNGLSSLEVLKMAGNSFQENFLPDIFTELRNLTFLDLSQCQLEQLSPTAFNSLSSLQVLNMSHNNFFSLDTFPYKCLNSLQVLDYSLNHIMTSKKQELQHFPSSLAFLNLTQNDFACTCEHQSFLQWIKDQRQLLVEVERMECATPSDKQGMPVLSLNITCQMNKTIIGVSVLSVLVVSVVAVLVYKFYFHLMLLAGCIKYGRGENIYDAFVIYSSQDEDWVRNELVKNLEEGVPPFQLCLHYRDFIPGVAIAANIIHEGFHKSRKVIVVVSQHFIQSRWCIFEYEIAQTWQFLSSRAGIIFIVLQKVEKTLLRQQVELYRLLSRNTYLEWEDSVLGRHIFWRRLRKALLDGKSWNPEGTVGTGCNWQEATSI
The assay is described as follows: co-immunoprecipitation with anti-Flag (Flag-IRGM, tagged TLR4).

T3 sequence (Q9HC29 whole entry): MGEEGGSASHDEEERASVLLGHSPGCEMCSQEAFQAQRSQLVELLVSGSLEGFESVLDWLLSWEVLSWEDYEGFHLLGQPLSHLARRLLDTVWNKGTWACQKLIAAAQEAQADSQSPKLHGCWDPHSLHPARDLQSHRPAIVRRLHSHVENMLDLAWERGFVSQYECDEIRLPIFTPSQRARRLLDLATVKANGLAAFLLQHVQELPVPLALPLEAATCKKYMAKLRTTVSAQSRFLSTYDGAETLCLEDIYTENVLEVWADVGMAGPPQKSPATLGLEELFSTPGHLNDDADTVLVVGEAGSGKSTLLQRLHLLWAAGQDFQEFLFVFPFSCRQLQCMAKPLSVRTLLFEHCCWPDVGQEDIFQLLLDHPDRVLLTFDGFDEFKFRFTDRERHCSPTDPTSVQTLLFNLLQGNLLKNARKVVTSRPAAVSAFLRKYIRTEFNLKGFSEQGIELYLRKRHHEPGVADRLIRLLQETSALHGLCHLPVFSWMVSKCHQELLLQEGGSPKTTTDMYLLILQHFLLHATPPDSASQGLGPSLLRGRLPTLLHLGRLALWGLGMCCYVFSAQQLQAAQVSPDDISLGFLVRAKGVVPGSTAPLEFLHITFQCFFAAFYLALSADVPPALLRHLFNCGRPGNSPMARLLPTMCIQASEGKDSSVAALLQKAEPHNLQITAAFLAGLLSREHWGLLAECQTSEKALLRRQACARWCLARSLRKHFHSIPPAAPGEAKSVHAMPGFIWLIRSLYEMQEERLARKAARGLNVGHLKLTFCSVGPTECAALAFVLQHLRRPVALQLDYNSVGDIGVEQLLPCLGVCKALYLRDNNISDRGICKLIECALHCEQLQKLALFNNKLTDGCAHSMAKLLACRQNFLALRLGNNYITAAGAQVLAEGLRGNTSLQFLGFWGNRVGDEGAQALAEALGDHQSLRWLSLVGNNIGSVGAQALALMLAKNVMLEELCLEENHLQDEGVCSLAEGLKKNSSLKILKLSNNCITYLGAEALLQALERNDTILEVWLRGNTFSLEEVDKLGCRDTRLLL
T1 sequence (Q6ZNE5 whole entry): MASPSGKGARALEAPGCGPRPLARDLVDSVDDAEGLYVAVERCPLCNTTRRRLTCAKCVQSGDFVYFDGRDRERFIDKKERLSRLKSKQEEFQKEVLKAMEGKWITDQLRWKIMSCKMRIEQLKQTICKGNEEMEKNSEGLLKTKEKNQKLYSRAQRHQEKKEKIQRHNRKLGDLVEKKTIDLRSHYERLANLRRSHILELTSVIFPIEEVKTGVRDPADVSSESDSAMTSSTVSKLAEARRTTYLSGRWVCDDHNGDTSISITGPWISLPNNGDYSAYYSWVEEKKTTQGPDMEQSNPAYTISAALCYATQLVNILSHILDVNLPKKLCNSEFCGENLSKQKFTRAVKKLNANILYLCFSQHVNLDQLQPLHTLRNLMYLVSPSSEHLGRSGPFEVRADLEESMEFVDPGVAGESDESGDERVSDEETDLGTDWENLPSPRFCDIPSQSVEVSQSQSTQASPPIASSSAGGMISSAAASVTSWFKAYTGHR
T2 sequence (Q14457 whole entry): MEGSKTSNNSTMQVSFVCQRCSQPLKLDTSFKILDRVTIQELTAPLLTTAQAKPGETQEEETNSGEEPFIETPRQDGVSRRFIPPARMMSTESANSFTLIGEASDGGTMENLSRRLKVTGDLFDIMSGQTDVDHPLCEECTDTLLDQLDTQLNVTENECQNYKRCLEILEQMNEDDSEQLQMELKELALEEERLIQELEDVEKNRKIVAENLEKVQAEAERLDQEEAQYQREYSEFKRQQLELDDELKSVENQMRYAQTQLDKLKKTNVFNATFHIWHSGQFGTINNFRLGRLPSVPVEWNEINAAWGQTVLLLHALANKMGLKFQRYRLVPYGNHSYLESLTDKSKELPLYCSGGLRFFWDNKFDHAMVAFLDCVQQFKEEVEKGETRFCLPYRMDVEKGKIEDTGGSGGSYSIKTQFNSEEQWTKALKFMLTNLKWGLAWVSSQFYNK

B1: IRGM (human IRGM, isoform d) (other, UniProt A1A4Y4-4 1-202, looked up)
chain: MEAMNVEKASADGNLPEVISNIKETLKIVSRTPVNITMAGDSGNGMSTFISALRNTGHEGKASPPTELVKATQRCASYFSSHFSNVVLWDLPGTGSATTTLENYLMEMQFNRYDFIMVASAQFSMNHVMLAKTAEDMGKKFYIVWTKLDMDLSTGALPEVQLLQIRENVLENLQKERLACHEKYLKSTPENSTRPRNINLCS
notes: Stood in cell lysates as GFP-, Flag- or V5-tagged protein or as the endogenous protein, depending on the experiment; Isoform d is said to be used in all experiments; also called GFP-IRGM; GFP-IRGMd
Consider B1, for which the binding result with ATG14L was “binds”; with Beclin 1 it was “binds”; with NOD2 (full length), “binds”; in the assay with TLR3, “binds”; in the assay with RIG-I, “binds”; with TLR4, “no binding”.

The values are drawn from patent publication US20180236024A1 (STC UNM, published 2018).
